tested on: K4 kissing-loop RNA reporter; test: apparent KD of K4 kissing-loop reporter; higher = weaker reporter binding; details: Eterna round: R107; input ligand: theophylline 20 uM
Method: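 RNA-MaP round R107: designed RNA switches with theophylline, tryptophan, arginine or FMN aptamers are transcribed on-chip within common flanks. They are titrated with a labelled K4 kissing-loop RNA reporter in RNA-MaP buffer (100 mM Tris pH 7.5, 80 mM KCl, 4 mM MgCl2), without ligand or with the indicated ligand. Median apparent KD per design.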
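Further: bound reporter read as fluorescence of individual clusters on recovered sequencing chips by microscopy, with normalized cluster intensities fitted with a binding model.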

| Sequence | apparent KD of K4 kissing-loop reporter |
| --- | --- |
| GCGUCCAUGUAUGAUACCAGACUUUUUUUAGUAGGUGACGAUAGUGAUGUUAUACGUCAAGUCCCUUGGCAGCAUGACCUAUUAU [theeternabot_exclusion_KL_Theo_B_23] | 694 nM |
| AACUUUUAAUGAAUUACAUUUUAUUUUUCUCGAGGACCGGUACGGCCGCCACUCGUACUAUAGUGAUGUUAUAGAUAAGUCCUAA [JR_ExcTryptoA_Sub020] | 179 nM |
| AAACAUUGGUGCGAUACCAGCUGAUCGGAAACGAUCUUGCUGGAGUGAUGUUCCAAGUAAAGCCCUUGGCAGCGCACCGAUGAAA [MAT - Same State Theophlline B - Mod of Eli - D21] | 72 nM |
| CUUGGUCUACGAAGGAGCGCCGUGCAGUGAUGUUGCAGUCAGAUCGAGUGAUGUUUCGGGCGGCAGGUAGGUCGCGUGGCCCUCU [Excusion Arginine B GF 27] | 692 nM |
| AUGAGGAACAGUGAUCCUAUUCCAUGGGAAGGAGCGUAGGAUACUACAGGUAGGUCGCCCAGUGAUGUUGGGCGCGUGUUCUUGG [Soririza] | 140 nM |
| GCGCGCGGCGGAGGAUAUAGCCGGUGGUCCGGGAAAGUGAGUGAUGUUCGCGGAGUUCUGGAUAUGUUAGAAGGCCGCCGCGCGC [qwertyuiopasdfghjklzxcvbnm] | 700 nM |
| GGGAAACCCAAUCAUACGGCGGUUCUUAGUCGAGGACCGGUACGGCCGCCACUCGAACUUGCUAGUGAUGUUAGCUUAUCGAGCU | 265 nM |
| GCUAUGGUAGGAAGGAGCGCUUAUUUAUUAAUAAGAGUGAUGUUCGAUAAUAAAUAUUUAUAGCAGGUAGGUCGCCUACUAUAGC [Arginine B K4 1] | 227 nM |
| UUUUGGCCAACGGCCGCCACUCACUAGUGAUGUUAGUUUGUGUUAUUCAUGAACCCGAUGUCGUCGAGGACCGGGUUGGGUUAUA [theeternabot_exclusion_KL_Trp_B_41] | 201 nM |
| UUGUUUGGUUGAGAGGUUGGGCGAGAUGAUACCAGUAGAGAAGAAUACCCUUGGCAGCAUAAGAAAGAUAUAGUGAUGUUGUAUA [SSTheophA.O] | 529 nM |
| CAGCGGAGUGAUGUUCUGCUUACUCCGGAUACCAGCUUCGCCAGAGGCCCUUGGCAGCCGGGCGGCUCAGUGAUGUUGGGUUGCU [Same State Theophylline A GF 16] | 979 nM |

same assay, conditions: Eterna round: R107; input ligand: tryptophan 2.4 mM

| Sequence | apparent KD of K4 kissing-loop reporter |
| --- | --- |
| AAGCAUUCUUCGGAAUGCAGACCCGCUGAGGAGGAUAUGACGAAAGUCAGAAGGUCUCAGUGAUGUUGAGGCCUCCUCAAUGGUC [whbob_Ex_FMNA__2th181] | 162 nM |
| CGUGAGUGAUGUUCACGAUGCUUCAAUCUAGAGGAUAUUCACGAUCGAAGAAGGCUGGACAAGUGCUGUCUCAUGACAGAUAAGG [FMN A SS t4] | 237 nM |
| UGUGUUUACCUGACUCAGUGAUGUUGAGAAGGAGCGUGCGAAUGCACAGGUAGGUCGCUCAACCUAAAUUCAGGUGAGCACUAAA | 724 nM |
| UGUGCCAACAGCGAUACCAGCCCGGCAGUGAUGUUGCCGGACGGAGUGAUGUUCCGGCAGGGCCCUUGGCAGCGCAGAAGCGCGA [Exclusion Theophylline B Gf 28] | 202 nM |
| UUCCAGUGAUGUUGGUAUCUGAUAAGGGAAGGAGCGCGGAUUAACGCAGGUAGGUCGCCCAAGUAAUAAAUGUUUAUUAAUUGAU [Default title] | 188 nM |
| UCUGCUGUAUAUGAUACCAGCAGUGAGAGACGAGAAGUAUAGUGAUGUUAUAUGAGAGAAUGCCCUUGGCAGCGUGUGCGUGUGG [SSTheophylB.aA] | 64.8 nM |
| ACAAGGGAUCCAGAUACCAGCACUCAAGGAGCUAUAUCAGCGAGUGAUGUUCGUUCAUAGUGCCCUUGGCAGCUGUACUUCCUUG [Essoengeis] | 110 nM |
| AAACAUCACUGGGAGUGAUGUUCUCAGUGACGAGGACCGGUACGGCCGCCACUCGCGAGAGAUAUAAUUAAGUAAUGACUUCAUU [Excl Tryptophan A V7] | 287 nM |
| UCUUUUGUAUAUGAUACCAGCAGUGAGAGACAGGAAGUAUAGUGAUGUUAUAUGAGAGAAUGCCCUUGGCAGCGUGUGCGGUUGG [SSTheophylB.V] | 137 nM |
| UUAGUCUAGAGAAGGAGCGAGUGAUGUUCGCAUGAUCUCAUGAUAUCAUGAGAUCGAAAUCCUCAGGUAGGUCGCUCUAGACAUU [AK6 Exc Arginine B] | 545 nM |
| AGUGAUGUUUUUUUUAAGAGUGAUGUUUUUCGAGGACCGGUACGGCCGCCACUCGAGUGAGGAGUGCGGUGGUGAGAUGUUGAGU [oomullin] | 519 nM |
| GUACGCUUCCGAGUGAUGUUCGGUAAUAGUUAGGAUAUCGCUUUUGCGAGAAGGAACUGAAUGAGGAAACUCGUUCGAAGUGUAC [FMN A 17] | 459 nM |
| CCUAUCUCAUACGAUACCAGUGAAUAACCAGUGAUGUUGGAAUAACCAAGGAAUAUUUUUCACCCUUGGCAGCGUAUGGGAUAGG [Ex Theophylline B K4 27] | 312 nM |
| AAGGGCGGGACUUUCUCGCCGGAUAGAGAUACCAGCCCAGCAAAGGGCCCUUGGCAGCUCACUGACCUCAGUGAUGUUGAGGUUC [Soerrainat] | 266 nM |
| AGACUAUCGUCAAAGACGGUAGUCAAAAGUGAGGAUAUAAGUGAUGUUAGAAGGCACUAAGACUGUAUCGAAUAGAUACGGUCAA [FmnA 2 #K4BetweenAptamer #OpenEnded] | 600 nM |
| CUUGAAAUGACUGAUACCAGUGAAAAUAUAUGUAGUGAUGUUAUAUACUAAUUUAAUAAGCGCCCUUGGCAGCAGUAUGAAUUAU [AstrosExc-theB#17] | 702 nM |

Reference: the supplement of paper PMC9170038
